From paper PMC9191643, “Cryo-EM structure of DNA-bound Smc5/6 reveals DNA clamping enabled by multi-subunit conformational changes”

Target: Smc5 (E1015Q);Smc6 (E1048Q);Nse1;Nse2;Nse3;Nse4 (Saccharomyces cerevisiae;Saccharomyces …, UniProt Q08204;Q12749;Q07913;P38632;Q05541;P43124 1-1093;1-1114;1-336;1-267;1-303;1-402, E1015Q|E1048Q||||)
Test: cryo-EM structure (3.8 A); 1 mM ATP, 2 mM MgCl2; 0.3 mg/mL complex, 1.5 uM DNA; Cryo-EM sample: 1 mM ATP, 2 mM MgCl2, 1.5 uM dsDNA, 4 C, 2 h; complex from size exclusion in 25 mM Hepes pH 7.5, 250 mM NaCl, 1 mM DTT (final binding buffer not stated)
Conditions: protein: recombinant;recombinant;recombinant;recombinant;recombinant;recombinant; copies: 1;1;1;1;1;1; blunt

B1: cryo-EM dsDNA (dsDNA)
DNA 1: TGGTTTTTATATGTTTTGTTATGTATTGTTTATTTTCCCTTTAATTTTAGGATATGAAAACAAGAATTTATC
DNA 2: GATAAATTCTTGTTTTCATATCCTAAAATTAAAGGGAAAATAAACAATACATAACAAAACATATAAAAACCA
B1: binds.
